From US20090148461A1 (Kyowa Kirin, published 2009) come the findings set out here.

The test deals with T1, full length human FGF23 protein (amino acid 25 to amino acid 251 of SEQ ID NO: 4) (human, UniProt Q9GZV9 25-251).
T1 construct: also called full length FGF23; human full length FGF23 protein
T1 sequence: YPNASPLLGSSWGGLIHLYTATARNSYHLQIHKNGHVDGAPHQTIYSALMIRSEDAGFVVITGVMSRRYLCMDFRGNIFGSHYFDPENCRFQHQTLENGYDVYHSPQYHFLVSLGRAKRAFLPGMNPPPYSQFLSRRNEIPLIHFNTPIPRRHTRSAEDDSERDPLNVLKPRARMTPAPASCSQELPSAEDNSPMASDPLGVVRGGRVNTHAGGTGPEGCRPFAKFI
Put plainly: ELISA screening of hybridoma supernatants. In general terms: ELISA stands for enzyme-linked immunosorbent assay.

B1: C10 antibody (anti-FGF23 human monoclonal antibody produced by hybridoma C10, FERM BP-10772) (antibody, human IgG1, V domains shown)
VH: QVQLVQSGAEVKKPGASVKVSCKASGYTFTNHYMHWVRQAPGQGLEWMGIINPISGSTSNAQKFQGRVTMTRDTSTSTVYMELSSLRSEDTAVYYCARDIVDAFDFWGQGTMVTVSS
VL: AIQLTQSPSSLSASVGDRVTITCRASQGISSALVWYQQKPGKAPKLLIYDASSLESGVPSRFSGSGSGTDFTLTISSLQPEDFATYYCQQFNDYFTFGPGTKVDIK
notes: also called recombinant C10 antibody
For the molecule B1, the binding result is on record as “binds”.
